From US20160024487

Legend:
[1] = molecular target: T1, Lys(Dnp)-ATNATATPRIVGG-Lys(Abz)
T1 chain: KATNATATPRIVGGK

[2] = molecular target: T2, Lys(Dnp)-ATNATMRPRIVGG-Lys(Abz)
T2 chain: KATNATMRPRIVGGK

[3] = molecular target: T3, Lys(Dnp)-ATNATPWPRIVGG-Lys(Abz)
T3 chain: KATNATPWPRIVGGK

[4] = molecular target: T4, Lys(Dnp)-ATNATWAPRIVGG-Lys(Abz)
T4 chain: KATNATWAPRIVGGK

[5] = molecular target: T5, Lys(Dnp)-ATNATFTPRIVGG-Lys(Abz)
T5 chain: KATNATFTPRIVGGK

[6] = molecular target: T6, Lys(Dnp)-ATNATYSPRIVGG-Lys(Abz)
T6 chain: KATNATYSPRIVGGK

[7] = molecular target: T7, Lys(Dnp)-ATNATLAPRIVGG-Lys(Abz)
T7 chain: KATNATLAPRIVGGK

[8] = molecular target: T8, Lys(Dnp)-ATNATVQPRIVGG-Lys(Abz)
T8 chain: KATNATVQPRIVGGK

[9] = molecular target: T9, Lys(Dnp)-ATNATLFPRIVGG-Lys(Abz)
T9 chain: KATNATLFPRIVGGK

[10] = molecular target: T10, Lys(Dnp)-ATNATWKPRIVGG-Lys(Abz)
T10 chain: KATNATWKPRIVGGK

[11] = molecular target: T11, Lys(Dnp)-ATNATFMPRIVGG-Lys(Abz)
T11 chain: KATNATFMPRIVGGK

[12] = molecular target: T12, Lys(Dnp)-ATNATIQPRIVGG-Lys(Abz)
T12 chain: KATNATIQPRIVGGK

[13] = molecular target: T13, Lys(Dnp)-ATNATVHPRIVGG-Lys(Abz)
T13 chain: KATNATVHPRIVGGK

[14] = molecular target: T14, Lys(Dnp)-ATNATIIPRIVGG-Lys(Abz)
T14 chain: KATNATIIPRIVGGK

[15] = molecular target: T15, Lys(Dnp)-ATNATFNPRIVGG-Lys(Abz)
T15 chain: KATNATFNPRIVGGK

[16] = molecular target: T16, Lys(Dnp)-ATNATTQPRIVGG-Lys(Abz)
T16 chain: KATNATTQPRIVGGK

[17] = molecular target: T17, Lys(Dnp)-ATNATRIPRIVGG-Lys(Abz)
T17 chain: KATNATRIPRIVGGK

[18] = molecular target: T18, Lys(Dnp)-ATNATPIPRIVGG-Lys(Abz)
T18 chain: KATNATPIPRIVGGK

[19] = molecular target: T19, Lys(Dnp)-ATNATVNPRIVGG-Lys(Abz)
T19 chain: KATNATVNPRIVGGK

[20] = molecular target: T20, Lys(Dnp)-ATNATLNPRIVGG-Lys(Abz)
T20 chain: KATNATLNPRIVGGK

[21] = molecular target: T21, Lys(Dnp)-ATNATFAPRIVGG-Lys(Abz)
T21 chain: KATNATFAPRIVGGK

[22] = molecular target: T22, Lys(Dnp)-ATNATGTPRIVGG-Lys(Abz)
T22 chain: KATNATGTPRIVGGK

[23] = molecular target: T23, Lys(Dnp)-ATNATGDPRIVGG-Lys(Abz)
T23 chain: KATNATGDPRIVGGK

[24] = molecular target: T24, Lys(Dnp)-ATNATSEPRIVGG-Lys(Abz)
T24 chain: KATNATSEPRIVGGK

[25] = molecular target: T25, Lys(Dnp)-ATNATYGPRIVGG-Lys(Abz)
T25 chain: KATNATYGPRIVGGK

[26] = molecular target: T26, Lys(Dnp)-ATNATKGPRIVGG-Lys(Abz)
T26 chain: KATNATKGPRIVGGK

[27] = molecular target: T27, Lys(Dnp)-ATNATHNPRIVGG-Lys(Abz)
T27 chain: KATNATHNPRIVGGK

[28] = molecular target: T28, Lys(Dnp)-ATNATWEPRIVGG-Lys(Abz)
T28 chain: KATNATWEPRIVGGK

[29] = molecular target: T29, Lys(Dnp)-ATNATHLPRIVGG-Lys(Abz)
T29 chain: KATNATHLPRIVGGK

[30] = molecular target: T30, Lys(Dnp)-ATNATWMPRIVGG-Lys(Abz)
T30 chain: KATNATWMPRIVGGK

[31] = molecular target: T31, Lys(Dnp)-ATNATQGPRIVGG-Lys(Abz)
T31 chain: KATNATQGPRIVGGK

[32] = molecular target: T32, Lys(Dnp)-ATNATRTPRIVGG-Lys(Abz)
T32 chain: KATNATRTPRIVGGK

[33] = molecular target: T33, Lys(Dnp)-ATNATYLPRIVGG-Lys(Abz)
T33 chain: KATNATYLPRIVGGK

[34] = molecular target: T34, Lys(Dnp)-ATNATRKPRIVGG-Lys(Abz)
T34 chain: KATNATRKPRIVGGK

[35] = molecular target: T35, Lys(Dnp)-ATNATDVPRIVGG-Lys(Abz)
T35 chain: KATNATDVPRIVGGK

[36] = molecular target: T36, Lys(Dnp)-ATNATAHPRIVGG-Lys(Abz)
T36 chain: KATNATAHPRIVGGK

[37] = molecular target: T37, Lys(Dnp)-ATNATTPPRIVGG-Lys(Abz)
T37 chain: KATNATTPPRIVGGK

[38] = molecular target: T38, Lys(Dnp)-ATNATELPRIVGG-Lys(Abz)
T38 chain: KATNATELPRIVGGK

[39] = molecular target: T39, Lys(Dnp)-ATNATSKPRIVGG-Lys(Abz)
T39 chain: KATNATSKPRIVGGK

[40] = molecular target: T40, Lys(Dnp)-ATNATPHPRIVGG-Lys(Abz)
T40 chain: KATNATPHPRIVGGK

[41] = molecular target: T41, Lys(Dnp)-ATNATHEPRIVGG-Lys(Abz)
T41 chain: KATNATHEPRIVGGK

B1: Human plasma purified Factor Xa (protein)
chain 1: ANSFLEEMKKGHLERECMEETCSYEEAREVFEDSDKTNEFWNKYKDGDQCETSPCQNQGKCKDGLGEYTCTCLEGFEGKNCELFTRKLCSLDNGDCDQFCHEEQNSVVCSCARGYTLADNGKACIPTGPYPCGKQTLER
chain 2: IVGGQECKDGECPWQALLINEENEGFCGGTILSEFYILTAAHCLYQAKRFKVRVGDRNTEQEEGGEAVHEVEVVIKHNRFTKETYDFDIAVLRLKTPITFRMNVAPACLPERDWAESTLMTQKTGIVSGFGRTHEKGRQSTRLKMLEVPYVDRNSCKLSSSFIITQNMFCAGYDTKQEDACQGDSGGPHVTRFKDTYFVTGIVSWGEGCARKGKYGIYTKVTAFLKWIDRSMKTRGLPKAKSHAPEVITSSPLK
[1]
  FXa kcat/KM: 330 M⁻¹ s⁻¹
[2]
  FXa kcat/KM: 490 M⁻¹ s⁻¹
[3]
  FXa kcat/KM: 1300 M⁻¹ s⁻¹
[4]
  FXa kcat/KM: 42 M⁻¹ s⁻¹
[5]
  FXa kcat/KM: 49 M⁻¹ s⁻¹
[6]
  FXa kcat/KM: 41 M⁻¹ s⁻¹
[7]
  FXa kcat/KM: 230 M⁻¹ s⁻¹
[8]
  FXa kcat/KM: 250 M⁻¹ s⁻¹
[9]
  FXa kcat/KM: 99 M⁻¹ s⁻¹
[10]
  FXa kcat/KM: 41 M⁻¹ s⁻¹
[11]
  FXa kcat/KM: 840 M⁻¹ s⁻¹
[12]
  FXa kcat/KM: 1700 M⁻¹ s⁻¹
[13]
  FXa kcat/KM: 67 M⁻¹ s⁻¹
[14]
  FXa kcat/KM: 490 M⁻¹ s⁻¹

B2: Human plasma purified Factor Xa (Molecular Innovations, Inc) (protein)
chain 1: B1 chain 1
chain 2: B1 chain 2
[15]
  FXa kcat/KM: 200 M⁻¹ s⁻¹
[16]
  FXa kcat/KM: 17 M⁻¹ s⁻¹
[17]
  FXa kcat/KM: 700 M⁻¹ s⁻¹
[18]
  FXa kcat/KM: 590 M⁻¹ s⁻¹
[19]
  FXa kcat/KM: 70 M⁻¹ s⁻¹
[20]
  FXa kcat/KM: 940 M⁻¹ s⁻¹
[21]
  FXa kcat/KM: 130 M⁻¹ s⁻¹
[3]
  FXa kcat/KM: 1300 M⁻¹ s⁻¹
[22]
  FXa kcat/KM: 59 M⁻¹ s⁻¹
[23]
  FXa kcat/KM: 73 M⁻¹ s⁻¹
[24]
  FXa kcat/KM: 22 M⁻¹ s⁻¹
[25]
  FXa kcat/KM: 41 M⁻¹ s⁻¹
[26]
  FXa kcat/KM: 33 M⁻¹ s⁻¹
[27]
  FXa kcat/KM: 71 M⁻¹ s⁻¹
[28]
  FXa kcat/KM: 24 M⁻¹ s⁻¹
[29]
  FXa kcat/KM: 140 M⁻¹ s⁻¹
[30]
  FXa kcat/KM: 200 M⁻¹ s⁻¹
[31]
  FXa kcat/KM: 140 M⁻¹ s⁻¹
[32]
  FXa kcat/KM: 1500 M⁻¹ s⁻¹
[33]
  FXa kcat/KM: 340 M⁻¹ s⁻¹
[34]
  FXa kcat/KM: 640 M⁻¹ s⁻¹
[35]
  FXa kcat/KM: 15 M⁻¹ s⁻¹
[36]
  FXa kcat/KM: 140 M⁻¹ s⁻¹
[37]
  FXa kcat/KM: 72 M⁻¹ s⁻¹
[38]
  FXa kcat/KM: 100 M⁻¹ s⁻¹
[39]
  FXa kcat/KM: 13 M⁻¹ s⁻¹
[40]
  FXa kcat/KM: 360 M⁻¹ s⁻¹
[41]
  FXa kcat/KM: 96 M⁻¹ s⁻¹
